The assay addresses fHbp^V1.1:PorA^267/P1.16 (Neisseria meningitidis (MC58 genomic DNA) | Neisseria meningitidis) (UniProt Q9JXV4). As to the kind of experiment: SPR. For orientation: In SPR one partner is held on a chip, and binding of the other changes the refractive index at the surface.

The substance “human complement FH domains 6 and 7 (from UniProt P08603 321-443) (domain or fragment)” displayed a fold reduction of CFH binding of 8 fold.
